This is an account of results in article PMC11243337, “Self-Responsive Fluorescence Aptasensor for Lactoferrin Determination in Dairy Products”.

This data set addresses Lactoferrin (Lf) (bovine (cow's milk), UniProt P24627 20-708). Briefly: fluorescence quenching (6-FAM); Tris-EDTA, no added ions; Lf 5 and 40 ug/mL; Tris-EDTA pH 8.0, no added salt, 25 C, 10 min; 90 uL of 50 nM aptamer + 100 uL Lf (0-100 ug/mL); Ex 485/Em 528 nm. Specificity section (alpha-La, beta-Lg, BSA). As to conditions: protein: commercial; label: 3'-6-FAM.

Lactoferrin (Lf), sequence (P24627 20-708): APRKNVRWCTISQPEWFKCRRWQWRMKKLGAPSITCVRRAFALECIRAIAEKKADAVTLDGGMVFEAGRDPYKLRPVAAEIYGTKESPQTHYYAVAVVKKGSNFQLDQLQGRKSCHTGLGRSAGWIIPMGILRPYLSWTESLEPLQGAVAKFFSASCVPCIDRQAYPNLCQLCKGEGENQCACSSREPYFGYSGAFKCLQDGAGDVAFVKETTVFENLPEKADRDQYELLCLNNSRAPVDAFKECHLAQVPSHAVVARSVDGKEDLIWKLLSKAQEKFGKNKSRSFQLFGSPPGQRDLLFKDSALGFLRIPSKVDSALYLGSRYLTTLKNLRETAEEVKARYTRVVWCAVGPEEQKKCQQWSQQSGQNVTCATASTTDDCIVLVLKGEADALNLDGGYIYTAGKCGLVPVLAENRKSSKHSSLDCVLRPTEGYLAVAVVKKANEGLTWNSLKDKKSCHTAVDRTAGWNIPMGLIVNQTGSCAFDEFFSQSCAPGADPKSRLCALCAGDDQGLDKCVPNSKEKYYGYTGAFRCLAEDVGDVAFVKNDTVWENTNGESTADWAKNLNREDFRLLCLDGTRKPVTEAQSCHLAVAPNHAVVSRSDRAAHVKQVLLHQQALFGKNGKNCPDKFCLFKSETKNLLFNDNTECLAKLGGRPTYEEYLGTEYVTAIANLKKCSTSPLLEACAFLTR

B1: Lf aptamer, 3'-6-FAM (ssDNA)
DNA: TGGTGCTGCCCCTAGTCTCCGGCTGATAGCTGCTTCTTGG
In the case of B1, the binding result is on record as “binds”.
